3 molecules from article PMC10482750, “Assessment of the roles of Spt5-nucleic acid contacts in promoter proximal pausing of RNA polymerase II” (The Journal of Biological Chemistry, 2023) can be followed below.

Substitutions are numbered along the chain they refer to. Names may count otherwise.

B1: DRB sensitivity-inducing factor (DSIF), wild type (Spt5 and Spt4) (complex)
chain 1: not shown
chain 2: MAFDAIPKDLRGLRACLVCSLVKSFDQFETDGCENCEEFLRMKNNKDNVYDHTSNNFDGIIALTTPTDSWVAKWQRLSRFTRGIYAISVSGTLPQSTLRDMKNRGIVYKSRDRSQR
notes: Spt5, Drosophila; Spt4, Drosophila; No tag cleavage is described; A ~100-kDa Spt5 degradation product lacking the acidic N-terminal region is in each preparation; also called WT DSIF; source: E. coli Rosetta (DE3) pLysS, purified (Talon, anti-FLAG)
B2: DSIF Spt4 (R79E, R82E, K109E) mutant (complex)
chain 1: not shown
chain 2: B1 chain 2 with R79E, R82E, K109E
notes: Spt5, Drosophila, wild type; as in m2; Spt4, Drosophila, three basic residues changed to glutamic acid; also called Spt4 mutant; source: E. coli, purified as WT DSIF (Talon, anti-FLAG)
B3: DSIF NGN-Asp mutant (complex)
chain 1: not shown
chain 2: B1 chain 2
notes: Spt5, Drosophila, two basic residues of the NGN domain changed to aspartic acid; d numbers are Drosophila Spt5; Spt4, Drosophila; as in m2; source: E. coli Rosetta (DE3) pLysS, purified (Talon, anti-FLAG)

The target of the experiment is T1, negative elongation factor (NELF): NELF-A, NELF-B, NELF-D, NELF-E (Drosophila, UniProt Q86NP2 1-1251; Q9Y113 1-594; Q24134 1-578; P92204 1-280).
T1 construct: NELF-A, Drosophila; NELF-B, Drosophila; NELF-D, Drosophila; NELF-E, Drosophila; No tag cleavage is described; source: Sf9, baculovirus, purified (Ni-NTA, anti-FLAG); copies: + + +
T1 sequence (Q86NP2 whole entry, chain 1 of 4): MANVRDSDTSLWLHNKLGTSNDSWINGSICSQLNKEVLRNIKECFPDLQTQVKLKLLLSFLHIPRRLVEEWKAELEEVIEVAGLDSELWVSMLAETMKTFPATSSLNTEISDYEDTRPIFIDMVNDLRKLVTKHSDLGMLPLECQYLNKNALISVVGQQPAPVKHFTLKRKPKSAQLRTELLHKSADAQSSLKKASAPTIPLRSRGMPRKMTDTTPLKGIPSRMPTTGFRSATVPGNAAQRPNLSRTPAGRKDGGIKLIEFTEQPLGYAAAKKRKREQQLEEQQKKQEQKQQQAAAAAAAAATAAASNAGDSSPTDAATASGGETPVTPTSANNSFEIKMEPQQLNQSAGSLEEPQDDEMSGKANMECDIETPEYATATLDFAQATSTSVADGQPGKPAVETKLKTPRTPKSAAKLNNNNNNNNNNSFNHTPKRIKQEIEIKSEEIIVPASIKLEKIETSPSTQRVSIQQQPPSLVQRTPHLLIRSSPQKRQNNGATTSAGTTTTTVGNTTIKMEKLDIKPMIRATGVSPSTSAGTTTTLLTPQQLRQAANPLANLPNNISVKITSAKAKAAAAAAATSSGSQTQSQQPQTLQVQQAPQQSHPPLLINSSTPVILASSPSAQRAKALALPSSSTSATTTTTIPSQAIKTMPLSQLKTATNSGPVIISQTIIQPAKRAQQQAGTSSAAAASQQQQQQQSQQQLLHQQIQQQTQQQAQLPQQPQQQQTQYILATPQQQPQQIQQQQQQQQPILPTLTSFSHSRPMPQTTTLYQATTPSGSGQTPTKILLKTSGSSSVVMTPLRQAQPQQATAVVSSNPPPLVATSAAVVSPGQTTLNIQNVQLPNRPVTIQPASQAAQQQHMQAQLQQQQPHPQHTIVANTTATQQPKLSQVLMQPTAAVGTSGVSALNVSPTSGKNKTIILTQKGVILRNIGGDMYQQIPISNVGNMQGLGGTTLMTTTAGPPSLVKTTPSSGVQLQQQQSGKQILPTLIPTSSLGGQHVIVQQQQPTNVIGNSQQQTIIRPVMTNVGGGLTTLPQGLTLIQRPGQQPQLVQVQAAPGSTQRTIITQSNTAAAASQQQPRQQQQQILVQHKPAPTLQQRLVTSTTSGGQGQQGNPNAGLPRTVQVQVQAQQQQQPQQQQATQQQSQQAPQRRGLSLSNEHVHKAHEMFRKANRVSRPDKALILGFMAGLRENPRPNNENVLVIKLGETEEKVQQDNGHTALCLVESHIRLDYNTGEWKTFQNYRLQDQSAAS
T1 sequence (Q9Y113 whole entry, chain 2 of 4): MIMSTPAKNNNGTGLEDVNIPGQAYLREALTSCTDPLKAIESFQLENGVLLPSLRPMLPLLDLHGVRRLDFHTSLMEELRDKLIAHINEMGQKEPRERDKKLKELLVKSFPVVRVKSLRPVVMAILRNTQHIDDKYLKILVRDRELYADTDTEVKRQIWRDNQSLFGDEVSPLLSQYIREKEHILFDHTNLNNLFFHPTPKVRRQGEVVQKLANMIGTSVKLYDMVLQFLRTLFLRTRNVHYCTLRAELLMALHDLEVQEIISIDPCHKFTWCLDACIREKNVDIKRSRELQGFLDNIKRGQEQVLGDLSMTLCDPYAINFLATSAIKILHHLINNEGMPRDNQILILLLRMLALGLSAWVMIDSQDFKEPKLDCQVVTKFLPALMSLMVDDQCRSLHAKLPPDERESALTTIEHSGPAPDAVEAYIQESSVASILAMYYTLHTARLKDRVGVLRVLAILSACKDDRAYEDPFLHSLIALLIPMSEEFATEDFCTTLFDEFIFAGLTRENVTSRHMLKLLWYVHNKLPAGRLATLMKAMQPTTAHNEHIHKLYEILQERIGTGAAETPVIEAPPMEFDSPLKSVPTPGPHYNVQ
T1 sequence (Q24134 whole entry, chain 3 of 4): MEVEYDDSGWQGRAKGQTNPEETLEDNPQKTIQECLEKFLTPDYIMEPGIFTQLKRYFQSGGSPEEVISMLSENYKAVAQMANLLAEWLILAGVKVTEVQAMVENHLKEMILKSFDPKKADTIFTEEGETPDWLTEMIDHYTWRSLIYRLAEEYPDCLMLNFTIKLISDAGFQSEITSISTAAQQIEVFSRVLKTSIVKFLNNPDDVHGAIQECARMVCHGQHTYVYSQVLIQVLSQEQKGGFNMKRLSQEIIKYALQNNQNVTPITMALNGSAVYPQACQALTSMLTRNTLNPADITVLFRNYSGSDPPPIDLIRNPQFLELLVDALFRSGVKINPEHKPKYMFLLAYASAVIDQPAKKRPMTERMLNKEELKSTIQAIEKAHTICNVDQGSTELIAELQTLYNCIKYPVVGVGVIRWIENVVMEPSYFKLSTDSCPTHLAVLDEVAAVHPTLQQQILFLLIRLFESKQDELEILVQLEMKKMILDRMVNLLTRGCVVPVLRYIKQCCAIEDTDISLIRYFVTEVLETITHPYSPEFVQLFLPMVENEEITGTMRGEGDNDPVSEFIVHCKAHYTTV
T1 sequence (P92204 whole entry, chain 4 of 4): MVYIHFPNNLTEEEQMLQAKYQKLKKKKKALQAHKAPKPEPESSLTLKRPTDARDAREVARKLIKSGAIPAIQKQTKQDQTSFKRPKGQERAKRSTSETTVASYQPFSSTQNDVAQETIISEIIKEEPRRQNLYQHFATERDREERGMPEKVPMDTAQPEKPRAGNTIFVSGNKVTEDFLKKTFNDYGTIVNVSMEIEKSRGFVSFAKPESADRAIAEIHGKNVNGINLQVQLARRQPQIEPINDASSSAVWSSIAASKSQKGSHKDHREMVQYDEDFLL
The experiment in a line: native gel or EMSA; stalled Pol II elongation complexes plus purified WT or mutant DSIF and NELF together (supershift); room temperature; Torula yeast RNA added; 4% native polyacrylamide gel run at 4 °C. Particulars: both partners purified.
On to B1, for which the binding result is recorded as “binds”. In the case of B2, the binding result is given as “binds”. The value for B3 was “binds”.
